According to paper PMC7261417:

Target: T1, aquaporin-Z, P60844
T1 chain: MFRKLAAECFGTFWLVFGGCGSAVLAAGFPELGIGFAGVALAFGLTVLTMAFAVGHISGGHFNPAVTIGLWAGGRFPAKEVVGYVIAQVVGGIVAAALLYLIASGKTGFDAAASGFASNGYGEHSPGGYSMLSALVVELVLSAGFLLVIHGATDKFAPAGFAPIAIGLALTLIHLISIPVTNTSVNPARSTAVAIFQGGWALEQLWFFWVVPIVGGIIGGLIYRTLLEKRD
Assay: native MS
Settings: remark: other sources report otherwise

stoichiometry N: 4
B1: aquaporin-Z, P60844 1-231 (natural protein)
chain: T1 chain
modifications: here or on the partner: multiple N-terminal formylation modifications; multiple N-terminal formylation modifications
